Data reported in PMC9418005 (Nature Microbiology, 2022).

Experiments:
[1] = molecular target: T1, original 2019-nCoV spike trimer (SARS-CoV-2 original 2019-nCoV …, UniProt P0DTC2, 2 prolines (P986–P987) | residues 682–685 mutated to GSAS); assay: Luminex spike-ACE2 surrogate neutralization assay; conditions: both partners purified
[2] = molecular target: Delta (B.1.617.2) variant spike trimer (SARS-CoV-2 Delta (B.1.617.2), 2 prolines (P986–P987) | residues 682–685 mutated to GSAS); assay: cell-based or functional assay
[3] = molecular target: Alpha (B.1.1.7) variant spike trimer (SARS-CoV-2 Alpha (B.1.1.7), 2 prolines (P986–P987) | residues 682–685 mutated to GSAS); assay: cell-based or functional assay
[4] = molecular target: D614G mutant spike trimer (SARS-CoV-2 2019-nCoV D614G, D614G | 2 prolines (P986–P987) | residues 682–685 mutated to GSAS); assay: cell-based or functional assay
[5] = molecular target: Beta (B.1.351) variant spike trimer (SARS-CoV-2 Beta (B.1.351), 2 prolines (P986–P987) | residues 682–685 mutated to GSAS); assay: cell-based or functional assay
[6] = molecular target: Gamma (P.1) variant spike trimer (SARS-CoV-2 Gamma (P.1), 2 prolines (P986–P987) | residues 682–685 mutated to GSAS); assay: cell-based or functional assay
[7] = molecular target: T1, original 2019-nCoV spike trimer; assay: Luminex bead-based binding assay; conditions: both partners purified

B1: P5C3 LS monoclonal antibody (antibody, V domains shown)
VH: QMQLVQSGPEVKKPGTSVKVSCKASGFTFTSSAVQWVRQARGQRLEWIGWIVVGSGNTDYAQQFQERVTITRDMSTSTAYMELSSLGSEDTAVYYCAAPNCSGGSCYDGFDLWGQGTMVTVSS
VL: EIVLTQSPGTLSLSPGERATLSCRGSQSVRSSYLGWYQQKPGQAPRLLIYGASSRATGIPDRFSGSGSGTDFTLTISRLEPEDFAVYYCQQYGSSPWTFGQGTKVEIK
- binding result [1]: binds

B2: P2G3 LS human IgG1 monoclonal antibody (antibody, V domains shown)
VH: EVQLVESGGGLVQPGRSLRLSCAASGFRFDDYALHWVRQAPEKGLEWVSGISWNSNNIGYAESVKGRFTISRDTAKKSLYLQMNDLRAEDTALYYCVKDRHYDSSGYFVNGFDIWGQGTLVTVSA
VL: DIQLTQSPSFLSASVGDRVTVTCRASQGISSYVAWYQQKAGKAPTLLIYTASTLQSGVPSRFSGSGSGTEFTLTISSLQPEDFATYYCQQLHSYPVTFGQGTRLDIE
- IC80, live SARS-CoV-2 cytopathic effect neutralization assay, Vero E6 cells [2]: 0.024 µg/mL
- IC80, live SARS-CoV-2 cytopathic effect neutralization assay, Vero E6 cells [3]: 0.01 µg/mL
- IC80, live SARS-CoV-2 cytopathic effect neutralization assay, Vero E6 cells [4]: 0.028 µg/mL
- IC80, live SARS-CoV-2 cytopathic effect neutralization assay, Vero E6 cells [5]: 0.017 µg/mL
- IC80, live SARS-CoV-2 cytopathic effect neutralization assay, Vero E6 cells [6]: 0.021 µg/mL
- binding result [7]: binds
